Among the data in PMC7558290, “Evaluation on Elongation Factor 1 Alpha of Entamoeba histolytica Interaction with the Intermediate Subunit of the Gal/GalNAc Lectin and Actin in Phagocytosis” (Pathogens, 2020) are Kd, koff and kon values, retold here.

This assay concerns the target T1, recombinant EF1a protein (rEF1a), elongation factor 1 alpha of Entamoeba histolytica (Entamoeba histolytica, UniProt P31018 1-442).
T1 construct: Elongation factor 1 alpha (EF1a) of Entamoeba histolytica
T1 sequence (looked up): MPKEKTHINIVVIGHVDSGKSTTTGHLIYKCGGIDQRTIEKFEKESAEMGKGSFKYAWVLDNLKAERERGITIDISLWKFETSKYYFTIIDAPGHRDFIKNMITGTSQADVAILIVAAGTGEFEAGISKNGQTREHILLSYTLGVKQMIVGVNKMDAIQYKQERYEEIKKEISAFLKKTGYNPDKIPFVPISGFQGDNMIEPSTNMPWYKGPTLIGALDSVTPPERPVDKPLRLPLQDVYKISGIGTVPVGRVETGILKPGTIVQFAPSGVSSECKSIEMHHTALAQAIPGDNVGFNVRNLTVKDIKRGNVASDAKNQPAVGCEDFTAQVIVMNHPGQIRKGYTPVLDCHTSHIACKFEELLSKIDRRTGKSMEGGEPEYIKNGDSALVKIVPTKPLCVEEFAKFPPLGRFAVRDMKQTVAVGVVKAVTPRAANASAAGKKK
As to the kind of experiment: BLI; Octet-Red96; Igl-C (30 ug/mL, sodium acetate pH 4.0) or BSA (sodium acetate pH 5.0) immobilised on activated AR2G biosensors; rEF1a as analyte, twofold dilutions 4000 to 250 nM; running buffer pH 7.4, 1x Kinetics buffer, 30 °C; 1:1 binding model. The following applies: both partners purified. For orientation: BLI is a label-free optical method that tracks binding on a fibre tip over time.

B1: C-terminal fragment of the intermediate subunit of the Gal/GalNAc lectin (Igl-C) (domain or fragment)
chain: EGPNAEDKKKSCAQLNNNCKKEGKYEISDGFVTCLDCDDSAYIVGSQVGACTQCSPNAFKDENNKCQLCSTKQSQYGHCAACSATACITCEDINLILTGEKPCTVCKDGFYQIENATDGVYCSPCPAKCKTCKYNTTSKKVECVTCTEQRLKDIKAPECACPTGTVQLENGTCQSCSDLSKYPGCKKTDSCNVDSRTGFIYATECSDGFSGRSPYSNCTTCTKSNYYPKEGEKNGCAKCDDKCATCSDKDTCLTCADPLKVGSKCDGCKTGYYMSNGECKPCTNHCSECSSAAECTVCESDTYKVISGNGCNSCVDGFYFDEIKGTCIPCTSPCTKCVGVKKDCEEQETGCNSEKKKIVEECTKCSTKDHIAEVPVNGACVCAYGYVEGTSTEDNKIECQACKAKVNEFCDSCNSKDCLRCNAEYLEAKGGECVCVEGYYTSSWGSCIPCSRHMPHCTKCTGEGECTTCEDGWKLKDGKCNGAKGI
On to B1, for which the dissociation constant Kd was 90.7 nM, the dissociation rate constant (koff) amounted to 0.000347 s⁻¹ and the on-rate constant (kon) was found to be 3810 M⁻¹ s⁻¹.

Usually Kd stands for the constant that tells how readily two partners part at equilibrium. For orientation: koff means the rate constant with which the complex falls apart. One may read the kon as a measure of how fast the partners come together.
